# Results as given in US20140179593A1 (published 2014).
# Starred links: 1 amine or outer side, 2 acyl side, 3 side chain; linkers in the order of their positions; H or OH if unused. Positions of bridges follow the written chain, without caps; N, C: chain ends. Non-standard residues stand in square brackets, D forms with d. *: point of attachment. αMeNva(5-ylidene) = C[C@@](CCC=[*:3])(N[*:1])C(=O)[*:2]; S8 = C=CCCCCCC[C@](C)(N)C(=O)O; SeMet = C[Se]CC[C@H](N)C(=O)O; S5 = C=CCCC[C@](C)(N)C(=O)O; Nle = CCCC[C@H](N)C(=O)O; For = O=C*
# T1: hDcn3^P (PONY domain of human DCUN1D3) (Homo sapiens, UniProt Q8IWE4 86-304)
# T1 sequence: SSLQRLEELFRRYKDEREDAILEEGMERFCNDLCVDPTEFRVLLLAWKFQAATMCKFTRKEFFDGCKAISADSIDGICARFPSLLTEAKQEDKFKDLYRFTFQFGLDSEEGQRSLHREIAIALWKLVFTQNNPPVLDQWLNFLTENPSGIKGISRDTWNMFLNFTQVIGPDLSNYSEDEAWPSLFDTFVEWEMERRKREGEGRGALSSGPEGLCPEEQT
# T2: yDcn1^P (potentiating neddylation / PONY domain of Saccharomyces cerevisiae Dcn1) (Saccharomyces cerevisiae, UniProt Q12395 70-269)
# T2 construct: NEDD8 co-E3; Expressed in E. coli
# T2 sequence: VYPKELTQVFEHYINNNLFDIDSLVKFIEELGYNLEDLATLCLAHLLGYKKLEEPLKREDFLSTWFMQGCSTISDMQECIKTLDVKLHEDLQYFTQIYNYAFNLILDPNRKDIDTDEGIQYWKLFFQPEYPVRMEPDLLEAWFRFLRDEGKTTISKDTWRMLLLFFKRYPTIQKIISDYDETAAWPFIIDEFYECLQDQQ
# T3: yE1 for yNedd8 (Ula1-Uba3) (Saccharomyces cerevisiae, UniProt Q12059 1-462, limits assumed)
# T3 construct: Heterodimeric E1 expressed in E. coli as described in earlier publications
# T3 sequence 1: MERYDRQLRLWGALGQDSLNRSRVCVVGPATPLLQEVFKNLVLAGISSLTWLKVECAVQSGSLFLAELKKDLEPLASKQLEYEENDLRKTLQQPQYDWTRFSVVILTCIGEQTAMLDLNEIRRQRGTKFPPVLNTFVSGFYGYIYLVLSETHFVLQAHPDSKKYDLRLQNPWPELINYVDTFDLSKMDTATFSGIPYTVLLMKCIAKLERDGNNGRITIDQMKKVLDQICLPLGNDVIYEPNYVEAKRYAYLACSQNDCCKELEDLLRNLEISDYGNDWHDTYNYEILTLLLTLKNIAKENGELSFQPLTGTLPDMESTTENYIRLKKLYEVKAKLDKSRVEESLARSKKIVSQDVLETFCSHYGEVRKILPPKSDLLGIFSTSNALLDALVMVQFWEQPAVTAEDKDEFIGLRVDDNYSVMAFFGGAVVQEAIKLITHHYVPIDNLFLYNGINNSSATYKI
# T3 sequence 2: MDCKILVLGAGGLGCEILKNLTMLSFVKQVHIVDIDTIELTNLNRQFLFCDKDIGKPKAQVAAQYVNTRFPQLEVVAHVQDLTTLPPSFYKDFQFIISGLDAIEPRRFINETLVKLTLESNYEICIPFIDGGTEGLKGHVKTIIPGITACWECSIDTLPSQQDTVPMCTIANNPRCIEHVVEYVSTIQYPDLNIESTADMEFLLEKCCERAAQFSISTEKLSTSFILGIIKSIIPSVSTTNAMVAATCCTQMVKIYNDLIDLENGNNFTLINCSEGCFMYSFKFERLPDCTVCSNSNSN
# B1: yUbc12^Ac1-12 (NorLeu) 5, 9 (peptide)
# peptide: Ac-[Nle]LKL[S5]QLQ[S5]KKQ-NH2
# modifications: staple 5-9
# SMILES: CCCC[C@H](NC(C)=O)C(=O)N[C@@H](CC(C)C)C(=O)N[C@@H](CCCCN)C(=O)N[C@@H](CC(C)C)C(=O)N[C@@]1(C)CCCC=CCCC[C@@](C)(C(=O)N[C@@H](CCCCN)C(=O)N[C@@H](CCCCN)C(=O)N[C@@H](CCC(N)=O)C(N)=O)NC(=O)[C@H](CCC(N)=O)NC(=O)[C@H](CC(C)C)NC(=O)[C@H](CCC(N)=O)NC1=O
# notes: Stapled synthetic peptide
# B2: hUbc12^Ac1-12 (Met) Oct:But 6, 10 (peptide)
# peptide: Ac-MIKLF[S8]LKQ[αMeNva(5-ylidene)]KK-NH2
# modifications: staple 6-10
# notes: Stapled synthetic peptide; by the label the octenyl- and butenyl-alanine residues stand in the reverse order of the But:Oct peptide
# B3: hUbe2f^Ac1-25 (peptide)
# peptide: Ac-MLTLASKLKRDDGLKGSRTAATASD-NH2
# notes: Synthetic peptide of the N-terminus of human Ube2f; also called Acetyl-hUbe2f^1-25
# B4: yUbc12^Ac1-12 (NorLeu) (peptide)
# peptide: Ac-[Nle]LKLRQLQKKKQ-NH2
# SMILES: CCCC[C@H](NC(C)=O)C(=O)N[C@@H](CC(C)C)C(=O)N[C@@H](CCCCN)C(=O)N[C@@H](CC(C)C)C(=O)N[C@@H](CCCNC(=N)N)C(=O)N[C@@H](CCC(N)=O)C(=O)N[C@@H](CC(C)C)C(=O)N[C@@H](CCC(N)=O)C(=O)N[C@@H](CCCCN)C(=O)N[C@@H](CCCCN)C(=O)N[C@@H](CCCCN)C(=O)N[C@@H](CCC(N)=O)C(N)=O
# B5: hUbc12^Ac1-12 (Met) 5, 9 (peptide)
# peptide: Ac-MIKL[S5]SLK[S5]QKK-NH2
# modifications: staple 5-9
# notes: also called Acetyl-hUbc12^1-12(5:9Staple)
# B6: Acetyl-yUbc12^1-24 peptide (peptide)
# peptide: Ac-MLKLRQLQKKKQKENENSSSIQPN-NH2
# notes: Synthetic peptide; also called yUbc12^Ac1-24
# B7: hUbc12^Ac1-12 (Met) RR 6, 10 (peptide)
# peptide: Ac-MIKLF[(R)‑2‑(4-pentenyl)alanine]LKQ[(R)‑2‑(4-pentenyl)alanine]KK-NH2
# modifications: staple 6-10
# notes: Stapled synthetic peptide; 'RR' is not explained in the text
# B8: hUbc12^Ac1-12 (NorLeu) 5, 9 (peptide)
# peptide: Ac-[Nle]IKL[S5]SLK[S5]QKK-NH2
# modifications: staple 5-9
# SMILES: CCCC[C@H](NC(C)=O)C(=O)N[C@H](C(=O)N[C@@H](CCCCN)C(=O)N[C@@H](CC(C)C)C(=O)N[C@@]1(C)CCCC=CCCC[C@@](C)(C(=O)N[C@@H](CCC(N)=O)C(=O)N[C@@H](CCCCN)C(=O)N[C@@H](CCCCN)C(N)=O)NC(=O)[C@H](CCCCN)NC(=O)[C@H](CC(C)C)NC(=O)[C@H](CO)NC1=O)[C@@H](C)CC
# notes: Stapled synthetic peptide
# B9: hUbc12^Formyl-1-26 (peptide)
# peptide: For-MIKLFSLKQQKKEEESAGGTKGSSKK-NH2
# SMILES: CC[C@H](C)[C@H](NC(=O)[C@H](CCSC)NC=O)C(=O)N[C@@H](CCCCN)C(=O)N[C@@H](CC(C)C)C(=O)N[C@@H](Cc1ccccc1)C(=O)N[C@@H](CO)C(=O)N[C@@H](CC(C)C)C(=O)N[C@@H](CCCCN)C(=O)N[C@@H](CCC(N)=O)C(=O)N[C@@H](CCC(N)=O)C(=O)N[C@@H](CCCCN)C(=O)N[C@@H](CCCCN)C(=O)N[C@@H](CCC(=O)O)C(=O)N[C@@H](CCC(=O)O)C(=O)N[C@@H](CCC(=O)O)C(=O)N[C@@H](CO)C(=O)N[C@@H](C)C(=O)NCC(=O)NCC(=O)N[C@H](C(=O)N[C@@H](CCCCN)C(=O)NCC(=O)N[C@@H](CO)C(=O)N[C@@H](CO)C(=O)N[C@@H](CCCCN)C(=O)N[C@@H](CCCCN)C(N)=O)[C@@H](C)O
# notes: Synthetic peptide; also called Formyl-hUbc12^1-26
# Legend:
# [1] = target: T4, hDcn1^P (potentiating neddylation / PONY domain of human Dcn1, DCUN1D1) (Homo sapiens, UniProt Q96GG9 62-259); experiment: ITC, peptide titrated into Dcn PONY domain
# T4 construct: also called DCUN1D1^P; SCCRO PONY domain
# Protocol: (§1) Protein samples were buffer matched by desalting over a NAP-5 column (GE Healthcare) into 50 mM Hepes, 125 mM NaCl, 1 mM BME, pH 7.0 (ITC buffer). Peptides were dissolved by weight to a final concentration of 10 mM in ITC buffer and diluted further in ITC buffer as required for the experiments. […] The peptide ligands (4 mM) were constantly injected (1.5 μl). The interval time between each injection was 3 minutes and the duration of each injection was 3 seconds. […] Peptide ligands (250 μM) were constantly injected (2.5 μl). The interval time between each injection was three minutes and the duration of each injection was 5 seconds. […] The interval time between each injection was 3 minutes and the duration of each injection was 5 seconds. Obtained spectra were evaluated using Origin (V 7.0) to determine heats of binding and Kd values.
# [2] = target: hDcn2^P (PONY domain of human DCUN1D2) (Homo sapiens, UniProt Q6PH85 62-259); experiment: ITC, peptide titrated into Dcn PONY domain
# Protocol: as §1
# [3] = target: T1, hDcn3^P (PONY domain of human DCUN1D3); experiment: ITC, peptide titrated into Dcn PONY domain
# Protocol: as §1
# [4] = target: T2, yDcn1^P (potentiating neddylation / …); experiment: ITC, peptide titrated into yDcn1^P
# Protocol: (§2) To gain insights into mechanistic roles of Ubc12 N-terminal acetylation, isothermal titration calorimetry (ITC) was used to quantify interactions with peptides corresponding to the N-termini of yeast or human Ubc12.
# as §1
# [5] = target: T3, yE1 for yNedd8 (Ula1-Uba3); experiment: ITC, peptide titrated into yE1
# Protocol: as §2, §1
# [6] = target: T4, hDcn1^P (potentiating neddylation / …); experiment: ITC, two-site fit, first value
# Protocol: as §1
# T4 sequence (Q96GG9 62-259): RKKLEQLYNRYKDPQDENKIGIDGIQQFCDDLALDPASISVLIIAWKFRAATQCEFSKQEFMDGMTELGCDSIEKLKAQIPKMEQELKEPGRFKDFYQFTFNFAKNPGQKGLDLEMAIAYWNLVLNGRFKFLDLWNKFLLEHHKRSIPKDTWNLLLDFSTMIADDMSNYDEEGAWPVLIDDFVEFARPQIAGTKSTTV
# hDcn2^P (PONY domain of human DCUN1D2), sequence (Q6PH85 62-259 limits assumed): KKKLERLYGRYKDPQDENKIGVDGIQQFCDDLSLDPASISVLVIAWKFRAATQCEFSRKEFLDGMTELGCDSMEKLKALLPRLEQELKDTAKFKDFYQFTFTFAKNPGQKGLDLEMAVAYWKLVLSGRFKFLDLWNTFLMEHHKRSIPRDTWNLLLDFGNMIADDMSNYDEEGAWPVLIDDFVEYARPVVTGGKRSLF
binder,measurement,setting,value
"Ac-MIKLKSLKEQKK-NH2 (bridge 5-9; also: K5-E9 staple, chemistry not given here, Stapled synthetic peptide) [hUbc12^Ac1-12 (Met) KE 5, 9]",Kd,[1],1060 nM
B1,Kd,[2],515 nM
same,Kd,[1],418 nM
B2,Kd,[1],129 nM
B3,Kd,[3],2000 nM
Ac-LKLRQLQKKKQKENENSSSIQPN-NH2 (Synthetic peptide lacking Met1) [Acetyl-yUbc12^2-24 peptide],ΔH,[4],3.76 kcal/mol
same,ΔS,[4],33.4 cal/mol/deg
same,Kd,[5],1580 nM
same,N (stoichiometry),[5],0.92
same,ΔH,[5],-9.62 kcal/mol
same,ΔS,[5],-7.21 cal/mol/deg
B4,Kd,[2],793 nM
same,Kd,[1],628 nM
B5,Kd,[1],153 nM
Ac-MIK(Ac)LFSLKQQKKEEESAGGTKGSSKK-NH2 (Synthetic peptide) [hUbc12^Ac1-Ac3-26],Kd,[1],4600 nM
B6,Kd,[4],444 nM
same,ΔH,[4],4.15 kcal/mol
same,ΔS,[4],43.6 cal/mol/deg
same,Kd,[5],16 nM
same,N (stoichiometry),[5],0.99
same,ΔH,[5],-11.3 kcal/mol
same,ΔS,[5],-3.8 cal/mol/deg
"Ac-[SeMet]IKL[S5]SLK[S5]QKK-NH2 (staple 5-9, Stapled synthetic peptide) [hUbc12^Ac1-12 (SeMet) 5, 9]",Kd,[1],182 nM
"Ac-MIKLFKLKQEKK-NH2 (bridge 6-10; also: K6-E10 staple, chemistry not given here, Stapled synthetic peptide) [hUbc12^Ac1-12 (Met) KE 6, 10]",Kd,[1],483 nM
B7,Kd,[6],340 nM
"XIKLFSLKQQKK (N-terminal acetyl; norleucine at position 1 in place of Met; C-terminal amide, Synthetic peptide) [hUbc12^Ac1-12 (NorLeu)]",Kd,[1],5600 nM
B8,Kd,[1],440 nM
B9,Kd,[1],9700 nM
